The record followed here is PMC7817217.

For the test, the target named is bACE2-Rm fused with eGFP, expressed on the surface of HEK293T cells (Rhinolophus macrotis). Description: flow cytometry on cells. Background: A flow cytometer gives signals particle by particle.

“SARS-CoV-2 spike protein receptor binding domain (RBD) (from UniProt P0DTC2 319-541) (domain or fragment)” had a percent of cells stained positive of 34.5%.
